For test [1], the system named is EGFP gene solely under the control of a T7 promoter (pTarget) in HEK293T cells. The experiment in a line: EGFP expression from pTarget driven by pEditor variants (T7 RNAP transcriptional activity). In kind it is cell-based, human. The following applies: HEK293T cells co-transfected with pTarget and pEditor variant; listed as pAPOEBC. As for the experimental part: Each pEditor variant was introduced into HEK293T cells together with pTarget in which EGFP gene was solely under the control of a T7 promoter. […] Scale bar, 200 μm, which also applies to other micrographs. […] Cells transfected with pTarget and pEditor plasmids were incubated for 3 days before being harvested. pTarget plasmids were extracted and PCR reactions were performed to amplify the target region. Sequencing libraries were prepared using the PCR products and next-generation sequencing was performed. Mutation rates in each group, across different pEditor variants, were calculated.
(§1) HEK293T cells were obtained from ATCC and were grown in high-glucose (4.5 g/L) DMEM supplemented with GlutaMAX™, 1 mM sodium pyruvate, 10% FBS, 100 units/mL of penicillin and 100 μg/mL of streptomycin in a humidified chamber with 5% CO2 at 37° C. Cells were maintained at ˜80% confluence in 24-well plates on the day of transfection. 250 ng of pTarget and 250 ng of pEditor plasmids were mixed together with 1 μl of TransIT-X2 reagent (Mirus) and the mixture was incubated in 50 μl of Opti-MEM® (Thermo Fisher Scientific™) for 30 min. The mixture was then added drop-wise to each well. […]
To test whether fusing a cytidine deaminase to T7 RNAP maintained T7 RNAP activity, pTarget and various pEditor plasmids were transfected into HEK 293T cells and EGFP fluorescence under each condition was measured.

Test [2] deals with 2000-bp window downstream of a T7 promoter on pTarget in HEK293T cells. The experiment in a line: Mutation rates in the 2000-bp window of the pTarget plasmid by high-throughput sequencing. The following applies: cytidine deaminase only. The class given is cell-based, human. On the procedure:
as §1
To sequence the targeted region (˜2000 bp) on pTarget, plasmids were extracted from ˜1 million cells using Qiaprep Spin Miniprep Kit. PCR was performed using those plasmids as templates (primer sequences are shown in Table 2 above. Ampure® XP beads (Beckman Coulter™) were added to samples at a 0.8:1 ratio to size select for the pcr'ed fragments. The concentration of each sample was measured by Qubit™ (Thermo Fisher Scientific™). 1 ng of DNA at a volume of 2.5 μl from each sample was used as input for the subsequent library preparation. Sequencing library was prepared following the Nextera® XT Kit protocol (Illumina®) except that half the amount of each reagent was used. To sequence the targeted loci, genomic DNA was extracted from ˜1 million cells using the Quick-DNA™ Kit (Zymo Research™). […]

B1: pAPOBEC: control plasmid expressing deaminase alone (rat APOBEC1) (protein, UniProt P38483 1-229, looked up)
C->U-editing enzyme APOBEC-1: MSSETGPVAVDPTLRRRIEPHEFEVFFDPRELRKETCLLYEINWGGRHSIWRHTSQNTNKHVEVNFIEKFTTERYFCPNTRCSITWFLSWSPCGECSRAITEFLSRYPHVTLFIYIARLYHHADPRNRQGLRDLISSGVTIQIMTEQESGYCWRNFVNYSPSNEAHWPRYPHLWVRLYVLELYCIILGLPPCLNILRRKQPQLTFFTIALQSCHYQRLPPHILWATGLK
Regarding B1, in test [1], the “EGFP expression / EGFP signals” value is reported as “not”. Moreover, in test [2], the “C->T and G->A mutation rates compared with background (pT7) error rates” value is listed as “not statistically different from the background error rates”.

(Values after US20220170006A1, “A PSEUDO-RANDOM DNA EDITOR FOR EFFICIENT AND CONTINUOUS NUCLEOTIDE DIVERSIFICATION IN HUMAN CELLS” (THE BROAD INSTITUTE, INC., priority 2019, published 2022).)
